Results reported in US20160067347A1, “APJ RECEPTOR AGONISTS AND USES THEREOF” (AMGEN INC., priority 2012, published 2016).
*1 amine or outer side, *2 acyl side, *3 side chain or, on linkers, in order; H or OH if unused. Where a SMILES comes first, the peptide text is derived from it. Primed or numbered codes have the meaning given here. Where no end group is shown, it is not given here. [ ]: non-standard residue; d: D form. Atz = (S)-2-amino-3-(1H-1,2,3-triazol-4-yl)propanoyl residue, substituent (PEG) on triazole N1, O=C([C@H](Cc1cn([*:3])nn1)N[*:1])[*:2]; Oic = O=C(O)[C@@H]1C[C@@H]2CCCC[C@@H]2N1; Phe(4-Cl) = N[C@@H](Cc1ccc(Cl)cc1)C(=O)O; 1Nal = N[C@@H](Cc1cccc2ccccc12)C(=O)O; hArg = N=C(N)NCCCC[C@H](N)C(=O)O; Cha = N[C@@H](CC1CCCCC1)C(=O)O; 40K‑mPEG = 40 kDa methoxy-PEG; pGlu = O=C1CC[C@@H](C(=O)O)N1; PEG11′ = not defined here; PEG23′ = not defined here; PEG35′ = not defined here; PEG47′ = not defined here; Nle = CCCC[C@H](N)C(=O)O

Assays:
in vitro = conditions: rat
Method: Apelin peptides were spiked into freshly prepared mouse, rat, dog and human EDTA plasma to a final concentration of 5 μM. The plasma samples were then incubated at 37° C. over a period of 4 hr. Up to 8 time points were sampled to facilitate estimation of in vitro half life in plasma matrices. In a typical experiment, aliquot of 100 μL of plasma sample was taken from the incubation vial, followed by addition of 300 μL of MeOH containing internal standard. The quenched sample was centrifuged at 5500 g for 15 min after 15 min vortex in room temperature. The supernatant was then analyzed by high resolution LC-MS.

rat APJ receptor = target: T1, rat APJ receptor (Rattus norvegicus, UniProt Q9JHG3); assay: [35S]GTPγS assay, membranes from stable cell lines, rat APJ; assay type: biochemical; conditions: for in vitro potency relative to endogenous pyr apelin 13 (SEQ ID NO: 128) / in vitro potency, mono vs bis vs tetrakis 20 kDa PEG peptides: FIG. 11, in vitro rat GTPγS assay; for potency relative to monopeptide (SEQ ID NO: 494): FIG. 13, PEGylated bis-peptides on low molecular weight monodispersed PEG
T1 construct: expressed in transfected cells; CHO is named only for the cAMP assay
T1 sequence (Q9JHG3 1-377): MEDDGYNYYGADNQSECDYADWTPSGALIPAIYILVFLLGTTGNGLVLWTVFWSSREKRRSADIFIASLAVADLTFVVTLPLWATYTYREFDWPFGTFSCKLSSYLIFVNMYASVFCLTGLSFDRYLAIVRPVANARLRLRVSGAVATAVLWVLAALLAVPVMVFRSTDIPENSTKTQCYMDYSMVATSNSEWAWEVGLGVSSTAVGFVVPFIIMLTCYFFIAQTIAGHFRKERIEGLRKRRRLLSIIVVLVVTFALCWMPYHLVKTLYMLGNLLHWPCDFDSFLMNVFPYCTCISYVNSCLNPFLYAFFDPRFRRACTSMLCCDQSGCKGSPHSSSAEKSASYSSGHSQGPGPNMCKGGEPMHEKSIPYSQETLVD
Method: To assay for GTP, membranes were prepared from stable cell lines and used to determine the efficacy/potency of the modified peptides. The optimal experimental conditions for the concentrations of GDP, MgCl2 and NaCl in the assay buffer were initially determined. The membranes were incubated with modified peptides in the assay buffer. The reaction was initiated by addition of [^35S] GTPγS in the absence or presence of peptides and incubated at room temperature for 90 min. […] Bound [^35S] GTPγS was separated from free radiolabel by filtration. The filter bound radioactivity was determined by liquid scintillation counting.
A series of PEGylated peptides were prepared and screened in vitro to explore the effects of PEG size and peptide valency on potency and efficacy in the GTPγS assay. In the assay 20 kDA and 40 kDA PEG were compared (FIG. 10).
Additionally mono- and multivalent bis, and tetrakis-peptide conjugated PEGS were prepared to explore peptide valency. […]

FIGURE 4B = assay: FIGURE 4B
Description: Table printed on a drawing sheet, FIGURE 4B
Section band inside the table: Peptides with thioether linker and 20 kDa PEG modification
The patent's description of the figure: FIGS. 4A-B. In vitro stability of APJ agonists in plasma.
First reader's note: Rows 3 and 9 of the grid are section headings spanning all columns (linker type of the 20 kDa PEGylated peptides).

## CCCC[C@H](NC(=O)[C@@H]1CCCN1C(=O)CNC(=O)[C@H](CCCCN)NC(=O)[C@H](Cc1cn(CCOCCOCCOCCOCCOCCOCCOCCOCCOCCOCCN)nn1)NC(=O)[C@H](Cc1ccccc1)NC(=O)[C@H](CC(C)C)N(C)C(=O)[C@H](CCCCNC(=N)N)NC(=O)[C@@H]1CCCN1C(=O)[C@H](CCCNC(=N)N)NC(=O)[C@@H]1CCC(=O)N1)C(=O)N[C@H](Cc1ccccc1)C(=O)O [compound 29]
In vitro; plasma
  remaining at 1 h, 5 μM: 50%

## CCCC[C@H](NC(=O)[C@@H]1CCCN1C(=O)CNC(=O)[C@H](CCCCN)NC(=O)[C@H](Cc1c[nH]cn1)NC(=O)[C@H](CO)NC(=O)[C@H](CC1CCCCC1)NC(=O)[C@H](CCCCNC(=N)N)NC(=O)[C@@H]1CCCN1C(=O)[C@H](CCCNC(=N)N)NC(=O)[C@@H]1CCC(=O)N1)C(=O)N[C@@H](Cc1cccc2ccccc12)C(=O)O [compound 31] ([pGlu]RP[hArg][Cha]SHKGP[Nle][1Nal]-OH; C-terminus assumed)
In vitro; rat EDTA plasma
  remaining at 1 h, 5 μM: 63%

## CCCC[C@H](NC(=O)[C@@H]1CCCN1C(=O)CNC(=O)[C@H](CCCCN)NC(=O)[C@H](Cc1c[nH]cn1)NC(=O)[C@H](CO)NC(=O)[C@H](CC1CCCCC1)NC(=O)[C@H](CCCCNC(=N)N)NC(=O)[C@@H]1CCCN1C(=O)[C@H](CCCNC(=N)N)NC(=O)[C@@H]1CCC(=O)N1)C(=O)N[C@@H](Cc1ccc(Cl)cc1)C(=O)O [compound 32] ([pGlu]RP[hArg][Cha]SHKGP[Nle][Phe(4-Cl)]-OH; C-terminus assumed)
In vitro; rat EDTA plasma
  remaining at 1 h, 5 μM: 64.6%

## CCCC[C@H](NC(=O)[C@@H]1C[C@@H]2CCCC[C@@H]2N1C(=O)CNC(=O)[C@H](CCCCN)NC(=O)[C@H](Cc1cn(CCOCCOCCOCCOCCOCCOCCOCCOCCOCCOCCN)nn1)NC(=O)[C@H](Cc1ccccc1)NC(=O)[C@H](CC1CCCCC1)NC(=O)[C@H](CCCCNC(=N)N)NC(=O)[C@@H]1CCCN1C(=O)[C@H](CCCNC(=N)N)NC(=O)[C@@H]1CCC(=O)N1)C(=O)N[C@H](Cc1ccccc1)C(=O)O [compound 33]
In vitro; plasma
  remaining at 1 h, 5 μM: 66%

## CCCC[C@H](NC(=O)[C@@H]1C[C@@H]2CCCC[C@@H]2N1C(=O)CNC(=O)[C@H](CCCCN)NC(=O)[C@H](Cc1c[nH]cn1)NC(=O)[C@H](Cc1cn(CCOCCOCCOCCOCCOCCOCCOCCOCCOCCOCCN)nn1)NC(=O)[C@H](CC1CCCCC1)NC(=O)[C@H](CCCCNC(=N)N)NC(=O)[C@@H]1CCCN1C(=O)[C@H](CCCNC(=N)N)NC(=O)[C@@H]1CCC(=O)N1)C(=O)N1CCC[C@H]1C(=O)N[C@@H](Cc1ccc(Cl)cc1)C(=O)O [compound 34]
In vitro; plasma
  remaining at 1 h, 5 μM: 72%

## SEQ ID NO: 129: 20 kDa PEG-mono(Atz-KFRRQRP[hArg][Cha]SHKG[Oic][Nle]P[4-Cl—F]) (XKFRRQRPRLSHKGPMPF; not fully specified; 20 kDa PEG, Atz linker; non-natural residues; source: /note="N-term may or may not be modified by conjugation linker, an acyl group, an aryl group, an alkyl group, NPeg11, a PEG derivative or other serum half-life prolonging group"; MOD_RES (1)..(1): Atz)
Rat APJ receptor
  in vitro potency relative to endogenous pyr apelin 13 (SEQ ID NO: 128): significantly more potent
  in vitro potency, mono vs bis vs tetrakis 20 kDa PEG peptides: approximately equipotent

## SEQ ID NO: 130: 20 kDa PEG-bis(Atz-KFRRQRP[hArg][Cha]SHKG[Oic][Nle]P[4-Cl—F]) (KFRRQRP[hArg][Cha]SHKG[Oic][Nle]P[Phe(4-Cl)]; not fully specified (N-terminus); also: 20 kDa PEG carries two peptide copies)
Rat APJ receptor
  in vitro potency relative to endogenous pyr apelin 13 (SEQ ID NO: 128): significantly more potent
  in vitro potency, mono vs bis vs tetrakis 20 kDa PEG peptides: approximately equipotent

## SEQ ID NO: 131: 20 kDa PEG-tetrakis(Atz-KFRRQRP[hArg][Cha]SHKG[Oic][Nle]P[4-Cl—F]) (KFRRQRP[hArg][Cha]SHKG[Oic][Nle]P[Phe(4-Cl)]; not fully specified (N-terminus); also: 20 kDa PEG carries four peptide copies)
Rat APJ receptor
  in vitro potency relative to endogenous pyr apelin 13 (SEQ ID NO: 128): significantly more potent
  in vitro potency, mono vs bis vs tetrakis 20 kDa PEG peptides: approximately equipotent

## SEQ ID NO: 133: PEGylated bis-peptide, the shortest PEG conjugate (~0.6 kDa PEG) ([PEG11′][Atz]KFRRQRP[hArg][Cha]SHKG[Oic][Nle]P[Phe(4-Cl)]; not fully specified (residue 1); numbers in words are those of the source; also: bis-peptide: two peptide chains joined through PEG11 on Atz)
Rat APJ receptor
  potency relative to monopeptide (SEQ ID NO: 494): reduced potency

## SEQ ID NO: 134: PEGylated bis-peptide, 1 kDa PEG conjugate ([PEG23′][Atz]KFRRQRP[hArg][Cha]SHKG[Oic][Nle]P[Phe(4-Cl)]; not fully specified (residue 1); numbers in words are those of the source; also: bis-peptide: two peptide chains joined through PEG23 on Atz)
Rat APJ receptor
  potency relative to monopeptide (SEQ ID NO: 494): increased potency

## SEQ ID NO: 135: PEGylated bis-peptide, 1.7 kDa PEG conjugate ([PEG35′][Atz]KFRRQRP[hArg][Cha]SHKG[Oic][Nle]P[Phe(4-Cl)]; not fully specified (residue 1); numbers in words are those of the source; also: bis-peptide: two peptide chains joined through PEG35 on Atz)
Rat APJ receptor
  potency relative to monopeptide (SEQ ID NO: 494): increased potency

## SEQ ID NO: 136: PEGylated bis-peptide, 2.2 kDa PEG conjugate ([PEG47′][Atz]KFRRQRP[hArg][Cha]SHKG[Oic][Nle]P[Phe(4-Cl)]; not fully specified (residue 1); numbers in words are those of the source; also: bis-peptide: two peptide chains joined through PEG47 on Atz)
Rat APJ receptor
  potency relative to monopeptide (SEQ ID NO: 494): increased potency

## SEQ ID NO: 474: 40 Kda PEGylated peptide compared with the 20 kDa PEGylated peptide SEQ ID NO: 24 ({40K‑mPEG-Thiopropionyl}-KFRRQRP[hArg][Cha]SHKG[Oic][Nle]P[Phe(4-Cl)]-OH)
Rat APJ receptor; FIG. 10
  Emax relative to the 20 kDa PEGylated peptide: 84 % of 20 kDa

## Thiopropionyl(20K-mPEG)- KFRRQRP[hArg][Cha]SHKG[Oic][Nle]P[4-Cl-F] [compound 44]
FIGURE 4B
  in vitro plasma stability (t1/2, min) | DOG: 172 min
  in vitro plasma stability (t1/2, min) | HUMAN: 142 min
  in vitro plasma stability (t1/2, min) | MOUSE: 37 min
  in vitro plasma stability (t1/2, min) | RAT: 180 min

## Thiopropionyl(20K-mPEG)- QRP[hArg][Cha]SHKG[Oic][Nle]P[4-Cl-F] [compound 48]
FIGURE 4B
  in vitro plasma stability (t1/2, min) | DOG: 219 min
  in vitro plasma stability (t1/2, min) | HUMAN: 307 min
  in vitro plasma stability (t1/2, min) | MOUSE: 53 min
  in vitro plasma stability (t1/2, min) | RAT: 303 min

## Thiopropionyl(20K-mPEG)- RQRP[hArg][Cha]SHKG[Oic][Nle]P[4-Cl-F] [compound 47]
FIGURE 4B
  in vitro plasma stability (t1/2, min) | DOG: 279 min
  in vitro plasma stability (t1/2, min) | HUMAN: 300 min
  in vitro plasma stability (t1/2, min) | MOUSE: 41 min
